Measured values taken from paper PMC11618752 (2024).

Biological target: XPO1 protein, recombinant (UniProt O14980 1-1071)
Assay: ITC

XPO1 protein, recombinant, sequence (O14980 whole entry): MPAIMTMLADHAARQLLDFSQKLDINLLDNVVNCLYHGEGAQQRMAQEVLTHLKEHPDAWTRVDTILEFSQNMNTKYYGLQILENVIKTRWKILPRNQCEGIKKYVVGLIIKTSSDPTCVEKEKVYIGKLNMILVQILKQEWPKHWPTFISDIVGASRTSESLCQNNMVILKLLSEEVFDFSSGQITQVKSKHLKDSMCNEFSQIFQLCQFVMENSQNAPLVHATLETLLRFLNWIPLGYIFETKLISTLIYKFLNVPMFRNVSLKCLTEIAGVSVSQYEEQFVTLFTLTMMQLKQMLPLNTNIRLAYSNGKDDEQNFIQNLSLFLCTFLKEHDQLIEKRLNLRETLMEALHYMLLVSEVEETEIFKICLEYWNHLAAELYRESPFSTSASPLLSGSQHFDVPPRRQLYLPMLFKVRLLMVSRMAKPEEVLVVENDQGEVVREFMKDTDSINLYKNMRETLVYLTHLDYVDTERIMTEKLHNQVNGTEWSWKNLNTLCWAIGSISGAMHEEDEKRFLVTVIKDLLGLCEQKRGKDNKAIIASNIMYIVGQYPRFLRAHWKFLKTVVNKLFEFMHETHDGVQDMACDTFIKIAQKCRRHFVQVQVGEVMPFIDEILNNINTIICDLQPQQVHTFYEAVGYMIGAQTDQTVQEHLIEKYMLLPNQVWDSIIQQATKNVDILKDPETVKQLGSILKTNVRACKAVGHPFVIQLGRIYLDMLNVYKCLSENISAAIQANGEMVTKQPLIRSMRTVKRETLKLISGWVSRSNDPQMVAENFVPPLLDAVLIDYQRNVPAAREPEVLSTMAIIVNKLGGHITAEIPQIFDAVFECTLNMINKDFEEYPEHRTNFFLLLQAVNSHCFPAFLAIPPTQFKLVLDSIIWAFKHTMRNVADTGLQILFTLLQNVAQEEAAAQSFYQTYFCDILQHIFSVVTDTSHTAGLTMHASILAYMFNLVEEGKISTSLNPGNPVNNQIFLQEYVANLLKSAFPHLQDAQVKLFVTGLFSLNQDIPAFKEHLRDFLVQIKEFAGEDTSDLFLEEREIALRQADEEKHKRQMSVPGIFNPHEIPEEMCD

B1: NES peptide (173–182 aa of TIRR) (peptide)
peptide: LLFALKVLNM
  Kd: 45 µM
